B1: VHH-COVE9 (on beads in Example 26, production host not stated) (VHH)
VHH: EVQLVESGGGLVQPGGSLRLSCAASGTIFSTNAMSWYRQAPGKQRELVAAITSGGNTNYADSVKGRFTISRDNAKNTVYLQMNSLKPEDTAVYYCNAPGVVTGSYDVRNYWGQGTQVTVSS
B2: Bacillus subtilis-derived VHH-COVE9 (VHH)
VHH: B1 VHH
B3: Bacillus subtilis-derived VHH-COVE8 (VHH)
VHH: EVQLVESGGGLVQPGGSLTLSCAASGQTFSSYNMAWFRQSPGKEREFVATISWGGGSTGYADSVKGRFTISRDHAKNTVYLQMKDLKPEDTGAYYCYLVGLFGIQASDYWGQGTQVTVSS
B4: Bacillus subtilis-derived VHH-COVE5 (VHH)
VHH: EVQLVESGGGLVQAGGSLRLSCTASDQIFDNYNMAWFRQSPGKEREFVAALSWGDSNTGYADSVKGRFTISRDNAKNTVYLQMNSLKPEDTAVYYCYAVTWLRGDYWGQGTQVTVSS
B5: Bacillus subtilis-derived VHH-COVE7 (VHH)
VHH: EVQLVESGGGLVQAGDSLRLSCTASGRTFSSCAMGWFRQAPGKEREFVAAISRGGGSTSYADSVKGRFTISKDRARNTAYLEMNSLKPEDTAIYYCYAVFPSGGDYWGQGTQVTVSS
B6: Bacillus subtilis-derived VHH-COVE3 (VHH)
VHH: AEVQLVESGGGFVQAGGSLRLSCRVSAPTFMTYTMAWFRQAPGNEREFVAALSKNFVTTSYADSVKGRFTISRDNAKNTVYLQMNSLKPEDTAVYYCNVAWSDYEYLEVWGQGTLVTVSSGGGSHHHHHH
B7: Bacillus subtilis-derived VHH-COVE2 (VHH)
VHH: AEVQLVESGGGLVQAGDSLRLSCAATRRTSSTYAMGWFRQAPGKGLEWVAAISWDGGRTYYAESVKGRFTISRDNAKNTVYLQMNSLKPEDTAVYYCYSFGGSDFLMDYWGQGTQVTVSSGGGSHHHHHH
B8: Bacillus subtilis-derived VHH-COVE4 (VHH)
VHH: AEVQLVESGGDVVQPGGSLRLSCAASGFTFTTYAMTWVRQAPGEGLEAVSTISGADGSTYYADSVKGRFTISRDNANNTVYLQMNSLKPEDTAVYYCAATPWYSASHTYWGQGTQVTVSSGGGSHHHHHH
B9: Bacillus subtilis-derived VHH-COVE1 (VHH)
VHH: AEVQLVESGGGLVQPGGSLRLSCAASGFAFSSYPMYWVRQAPGKGLEWISFIDGEGTSTSYADSVKGRFTISRDNAKNTVYLQMNSLKPEDTAVYYCNALLRRYNYGFTFDNYWGQGTQVTVSSGGGSHHHHHH
B10: Bacillus subtilis-derived VHH-COVE6 (VHH)
VHH: EVQLVESGGGLVQAGGSLRLSCTASGRTWNIASMTWFRQAPGGKERTFVATIKWSDLATYYTDSVKGRFTISRGNSKNTVYLQMNSLKPEDTGVYFCYAITTGSPLLGGGMDFWGKGTLVTVSS

The first test addresses T1, SARS-CoV-2 (2019-nCoV) spike RBD (L452Q, F490S) protein (His Tag) (Sino Biological, Inc.) (SARS-CoV-2, UniProt P0DTC2 319-541).
T1 construct: domain: RBD
Description: pull-down with VHH-immobilized beads, SDS-PAGE of the eluate.
Regarding B1, the binding result is reported as “no binding (tested: 12.5 µg/mL)”.

A further test deals with T2, SARS-CoV2 spike RBD variant strain (SPD-C52Hp, Acro Biosystems, K417N, E484K, N501Y) (SARS-CoV-2, UniProt P0DTC2 319-537).
T2 construct: domain: RBD
Description: BLI (Octet), biotinylated RBD on SA sensor, VHH as analyte, 1:1 fit. A general note: In BLI a coated tip is dipped into the sample, and binding shifts an interference pattern.
As to B2, the affinity, expressed as Kd, was 10.9 nM; the koff (as a rule, the rate constant with which the complex falls apart) turned out to be 0.00159 s⁻¹; the on-rate (kon) (in general, the rate constant with which the complex forms) was found to be 146000 M⁻¹ s⁻¹.

As to B3, the Kd (in general, a measure of binding affinity in units of concentration) was 239 nM; the off-rate constant (koff) was found to be 0.0191 s⁻¹; the kon amounted to 79900 M⁻¹ s⁻¹.

B4 yielded a Kd of 306 nM, an off-rate constant (koff) of 0.0625 s⁻¹ and a kon of 204000 M⁻¹ s⁻¹.

In turn, B5 had a Kd of 93.7 nM, a koff of 0.00398 s⁻¹ and a kon of 42400 M⁻¹ s⁻¹.

With B6, the Kd worked out at 265 nM, the koff came out at 0.0106 s⁻¹ and the kon was found to be 40000 M⁻¹ s⁻¹.

In turn, B7 yielded a Kd of 90.7 nM, a koff of 0.00529 s⁻¹ and a kon of 58400 M⁻¹ s⁻¹.

A further test has as its target T3, SARS-CoV-2 full-length Spike Recombinant Antigen B.1.617 Mutation (Bio-Serv) (SARS-CoV-2, UniProt P0DTC2 14-1273).
T3 construct: Bought
Description: ELISA, VHH on nickel plate, spike in solution. In general terms: ELISA stands for enzyme-linked immunosorbent assay.
Regarding B8, the binding result was “no binding (tested: 500 ng/mL)”.

With B2, the binding result is listed as “no binding (tested: 500 ng/mL)”.

With B3, the binding result is on record as “no binding (tested: 500 ng/mL)”.

With B9, the binding result is reported as “no binding (tested: 500 ng/mL)”.

As to B4, the binding result is listed as “no binding (tested: 500 ng/mL)”.

Consider B5, for which the binding result is given as “no binding (tested: 500 ng/mL)”.

With B10, the binding result is reported as “no binding (tested: 500 ng/mL)”.

Turning to B7, the binding result is listed as “no binding (tested: 500 ng/mL)”.

For a further test, the target named is SARS-CoV-2 full-length Spike Recombinant Antigen P.1 Mutation (Bio-Serv) (SARS-CoV-2, UniProt P0DTC2 14-1273). Description: ELISA, VHH on nickel plate, spike in solution (0-500 ng/mL).
On to B2, for which the “absorbance (450 nm)” value was 0.97.

With B3, the “absorbance (450 nm)” value was 0.97.

For the molecule B4, the “absorbance (450 nm)” value was determined as 0.97.

B5: the “absorbance (450 nm)” value turned out to be 0.97.

Turning to B6, the “absorbance (450 nm)” value was 0.97.

With B7, the “absorbance (450 nm)” value turned out to be 0.97.

A further test deals with SARS-CoV-2 full-length Spike Recombinant Antigen B.1.351 Mutation (Bio-Serv) (SARS-CoV-2, UniProt P0DTC2 14-1273). Described as above.
With B2, the “absorbance (450 nm)” value is 0.97.

With B3, the “absorbance (450 nm)” value stood at 0.97.

In the case of B4, the “absorbance (450 nm)” value was found to be 0.97.

As to B5, the “absorbance (450 nm)” value turned out to be 0.97.

Turning to B6, the “absorbance (450 nm)” value worked out at 0.97.

Consider B7, for which the “absorbance (450 nm)” value was 0.97.

A further test concerns the target SARS-CoV-2 full-length Spike Recombinant Antigen B.1.1.7 Mutation (Bio-Serv) (SARS-CoV-2, UniProt P0DTC2 14-1273). Described as above.
With B8, the binding result is on record as “binds”.

B2: the “absorbance (450 nm)” value came to 0.97.

Regarding B3, the “absorbance (450 nm)” value is 0.97.

B9: the binding result is given as “binds”.

For the molecule B4, the “absorbance (450 nm)” value was determined as 0.97.

As to B5, the “absorbance (450 nm)” value turned out to be 0.97.

Regarding B10, the binding result is given as “binds”.

On to B6, for which the “absorbance (450 nm)” value worked out at 0.97.

Take B7: the “absorbance (450 nm)” value came to 0.97.

The target in the next test is T4, SARS-CoV2 spike RBD variant (SRD-C52H2, Acro Biosystems, N440K) (SARS-CoV-2, UniProt P0DTC2 319-537).
T4 construct: domain: RBD
Briefly: BLI (Octet), biotinylated RBD on SA sensor, VHH as analyte, 1:1 fit.
The molecule B2 came in with a Kd of 12.5 nM, a koff of 0.00258 s⁻¹ and an on-rate (kon) of 206000 M⁻¹ s⁻¹.

On to B3, for which the Kd was less than 0.001 nM, the koff is less than 1e-07 s⁻¹ and the kon amounted to 74500 M⁻¹ s⁻¹.

B4 yielded a Kd of 42.4 nM, a koff of 0.00178 s⁻¹ and a kon of 42100 M⁻¹ s⁻¹.

In the case of B5, the affinity, expressed as Kd, was 24.2 nM; the koff worked out at 0.00113 s⁻¹; the kon stood at 46600 M⁻¹ s⁻¹.

B6: the Kd came out at 15.4 nM, the koff turned out to be 0.000448 s⁻¹ and the kon came to 29200 M⁻¹ s⁻¹.

For the molecule B7, the dissociation constant (Kd) amounted to 2.96 nM, the koff turned out to be 0.000491 s⁻¹ and the kon was determined as 166000 M⁻¹ s⁻¹.

The target of the next test is T5, SARS-CoV2 spike RBD variant strain (SRD-C52H3, Acro Biosystems, E484K) (SARS-CoV-2, UniProt P0DTC2 319-537).
T5 construct: domain: RBD
The description is as above.
On to B2, for which the Kd came out at 9.9 nM, the koff was 0.00307 s⁻¹ and the kon was 310000 M⁻¹ s⁻¹.

Turning to B3, binding was characterised by a dissociation constant (Kd) of 211 nM, the koff is 0.0147 s⁻¹ and the kon is 69700 M⁻¹ s⁻¹.

Regarding B4, the dissociation constant Kd turned out to be 626 nM, the koff turned out to be 0.0246 s⁻¹ and the kon amounted to 39200 M⁻¹ s⁻¹.

As for B5, binding was characterised by a dissociation constant (Kd) of 80.2 nM, the koff was 0.00707 s⁻¹ and the kon was 88100 M⁻¹ s⁻¹.

B7: binding was characterised by a dissociation constant (Kd) of 34.4 nM, the koff was found to be 0.00365 s⁻¹ and the kon amounted to 106000 M⁻¹ s⁻¹.

The next test has as its target T6, SARS-CoV-2 spike RBD variant strain (SPD-C52Hn, Acro Biosystems, N501Y) (SARS-CoV-2, UniProt P0DTC2 319-537).
T6 construct: domain: RBD
The description is as above.
B2 had a Kd of 6.9 nM, a koff of 0.00267 s⁻¹ and a kon of 386000 M⁻¹ s⁻¹.

As to B3, the Kd was determined as 28.8 nM, the koff was 0.00159 s⁻¹ and the kon is 55300 M⁻¹ s⁻¹.

Turning to B4, the Kd is 11.6 nM, the koff amounted to 0.00106 s⁻¹ and the kon stood at 91100 M⁻¹ s⁻¹.

For B5, the Kd amounted to 24 nM, the koff is 0.00186 s⁻¹ and the kon was determined as 73300 M⁻¹ s⁻¹.

As for B7, the Kd was 4.01 nM, the off-rate constant (koff) was 0.000438 s⁻¹ and the kon turned out to be 109000 M⁻¹ s⁻¹.

In another test the target is SARS-CoV-2 (2019-nCoV) spike S1-Fc recombinant protein (Sino Biological, Inc.) (SARS-CoV-2, UniProt P0DTC2 16-685).
Assay: not given
Regarding B6, the Kd worked out at 0.924 nM, the koff was found to be 9.75e-05 s⁻¹ and the kon worked out at 106000 M⁻¹ s⁻¹.

In the case of B7, the Kd came out at 1.2 nM, the koff is 8.47e-05 s⁻¹ and the kon came to 70700 M⁻¹ s⁻¹.

Values taken from US20230365659A1 (EPSILON MOLECULAR ENGINEERING, published 2023).
